Laboratory results reported in ChEMBL document CHEMBL1140936, “Topological polar surface area defines substrate transport by multidrug resistance associated protein 1 (MRP1/ABCC1)” (J Med Chem, 2009).

Tests used:
not read = substrate: N[C@@H](CCC(=O)N[C@@H](CS)C(=O)NCC(=O)O)C(=O)O; test: not read
[1] = substrate: N[C@@H](CCC(=O)N[C@@H](CSSC[C@H](NC(=O)CC[C@H](N)C(=O)O)C(=O)NCC(=O)O)C(=O)NCC(=O)O)C(=O)O; test: Activity of MRP1

B1: Multidrug resistance-associated protein 1 (Homo sapiens) (protein)
chain: MALRGFCSADGSDPLWDWNVTWNTSNPDFTKCFQNTVLVWVPCFYLWACFPFYFLYLSRHDRGYIQMTPLNKTKTALGFLLWIVCWADLFYSFWERSRGIFLAPVFLVSPTLLGITMLLATFLIQLERRKGVQSSGIMLTFWLVALVCALAILRSKIMTALKEDAQVDLFRDITFYVYFSLLLIQLVLSCFSDRSPLFSETIHDPNPCPESSASFLSRITFWWITGLIVRGYRQPLEGSDLWSLNKEDTSEQVVPVLVKNWKKECAKTRKQPVKVVYSSKDPAQPKESSKVDANEEVEALIVKSPQKEWNPSLFKVLYKTFGPYFLMSFFFKAIHDLMMFSGPQILKLLIKFVNDTKAPDWQGYFYTVLLFVTACLQTLVLHQYFHICFVSGMRIKTAVIGAVYRKALVITNSARKSSTVGEIVNLMSVDAQRFMDLATYINMIWSAPLQVILALYLLWLNLGPSVLAGVAVMVLMVPVNAVMAMKTKTYQVAHMKSKDNRIKLMNEILNGIKVLKLYAWELAFKDKVLAIRQEELKVLKKSAYLSAVGTFTWVCTPFLVALCTFAVYVTIDENNILDAQTAFVSLALFNILRFPLNILPMVISSIVQASVSLKRLRIFLSHEELEPDSIERRPVKDGGGTNSITVRNATFTWARSDPPTLNGITFSIPEGALVAVVGQVGCGKSSLLSALLAEMDKVEGHVAIKGSVAYVPQQAWIQNDSLRENILFGCQLEEPYYRSVIQACALLPDLEILPSGDRTEIGEKGVNLSGGQKQRVSLARAVYSNADIYLFDDPLSAVDAHVGKHIFENVIGPKGMLKNKTRILVTHSMSYLPQVDVIIVMSGGKISEMGSYQELLARDGAFAEFLRTYASTEQEQDAEENGVTGVSGPGKEAKQMENGMLVTDSAGKQLQRQLSSSSSYSGDISRHHNSTAELQKAEAKKEETWKLMEADKAQTGQVKLSVYWDYMKAIGLFISFLSIFLFMCNHVSALASNYWLSLWTDDPIVNGTQEHTKVRLSVYGALGISQGIAVFGYSMAVSIGGILASRCLHVDLLHSILRSPMSFFERTPSGNLVNRFSKELDTVDSMIPEVIKMFMGSLFNVIGACIVILLATPIAAIIIPPLGLIYFFVQRFYVASSRQLKRLESVSRSPVYSHFNETLLGVSVIRAFEEQERFIHQSDLKVDENQKAYYPSIVANRWLAVRLECVGNCIVLFAALFAVISRHSLSAGLVGLSVSYSLQVTTYLNWLVRMSSEMETNIVAVERLKEYSETEKEAPWQIQETAPPSSWPQVGRVEFRNYCLRYREDLDFVLRHINVTINGGEKVGIVGRTGAGKSSLTLGLFRINESAEGEIIIDGINIAKIGLHDLRFKITIIPQDPVLFSGSLRMNLDPFSQYSDEEVWTSLELAHLKDFVSALPDKLDHECAEGGENLSVGQRQLVCLARALLRKTKILVLDEATAAVDLETDDLIQSTIRTQFEDCTVLTIAHRLNTIMDYTRVIVLDKGEIQEYGAPSDLLQQRGLFYSMAKDAGLV
Not read
  Km: 5000 µM
[1]
  Km: 93 µM
